Measured values: article PMC6154995, “Heme-dependent Inactivation of 5-Aminolevulinate Synthase from Caulobacter crescentus” (Scientific Reports, 2018)

B1: 5-aminolevulinate synthase from Caulobacter crescentus, PLP form (yellow form) (enzyme)
chain: not shown
modifications: pyridoxal 5'-phosphate (PLP), predicted to bind to the ε-amino group of Lys248
notes: 5-aminolevulinate synthase (ALAS) of Caulobacter crescentus CB15, gene CC_1355, 408 residues, predicted mass 44,273 Da; gene PCR-amplified from genomic DNA; Same polypeptide as m2; also called cALAS; C. crescentus ALAS; source: E. coli BL21(DE3) pLysS, pET-28b, purified (HisTrap FF Crude, Mono Q; first, yellow eluate of the anion exchange column)
B2: 5-aminolevulinate synthase from Caulobacter crescentus, heme form (red form) (enzyme)
chain: not shown
notes: 5-aminolevulinate synthase (ALAS) of Caulobacter crescentus CB15, gene CC_1355, 408 residues, predicted mass 44,273 Da; gene PCR-amplified from genomic DNA; Same polypeptide as m1; also called cALAS; red form of cALAS; source: E. coli BL21(DE3) pLysS, pET-28b, purified (HisTrap FF Crude, Mono Q; second, reddish-brown eluate of the anion exchange column)

Target: the molecule itself
Experiment: SEC + native gel or EMSA; data not shown; purified yellow (PLP) and red (heme) fractions of recombinant cALAS; oligomeric state in solution; conditions not given

Protein	stoichiometry N
B1	2
B2	2
